Assay results taken from PMC7601681, “Human Serum Albumin Binds Native Insulin and Aggregable Insulin Fragments and Inhibits Their Aggregation” (Biomolecules, 2020).

What was measured:
albumins = settings: cited from earlier work
Description: Pyrene and its derivatives are very popular fluorescent markers used to study interactions with HSA [49, 50, 51, 52]. Despite the fact that there is differentiated localization of pyrene derivatives in HSA, these systems are commonly applied as fluorescent probes, due to the high sensitivity of their fine vibronic structure to changes in the environment (the Ham effect) and long fluorescence lifetimes. […] A similar trend was also observed for the complex of ...

HSA [1] = molecular target: T1, HSA (Homo sapiens, UniProt P02768); settings: probe trapped inside HSA; cited from earlier work
T1 construct: purchased Sigma-Aldrich
Description: The calculated value also confirmed existence of interactions between 2 and HSA with pyrene fragment presented on less polar environment inside protein. […] The binding constants 1.5 ± 0.3 × 10^6 dm^3 ...

[2] = Congo Red (CR) UV-Vis aggregation assay; type: physicochemical; settings: peptide 1.44 mM with HSA 1.44 mM, phosphate buffer pH 7.2, 7 days at 37.2 °C, then CR 45 μM for 3 days, UV-Vis 400–800 nm
Description: Insulin, peptides 5 and 6, and HSA (final concentration 2.88 mM), as well as each sample of the mixture of insulin, peptides 5 and 6) (1.44 mM) with HSA (1.44 mM), were incubated in phosphate buffer solution at pH 7.2 (1 mL) for 7 days at a temperature of 37.2 °C. Then, 1 mL of a solution of Congo Red dye (45 μM in phosphate buffer, pH 7.2) was added to each incubated sample. Incubation continued for another 3 days. During this time, spectroscopic measurements of all the samples were performed in the range of 400–800 nm. The UV-Vis spectra recorded on the first, second, and third days of incubation for all samples are shown in the Supplementary Material (Figures S1 and S2).
The UV-Vis measurements were carried out using a Hitachi spectrophotometer (Hitachi, Tokyo, Japan).

[3] = Light microscopy of Congo Red stained aggregates; type: physicochemical; settings: CR staining 3 days; for microscopic examination of CR-stained aggregates, in the presence of HSA: peptide 1.44 mM, HSA 0.30 mM, phosphate buffer 0.1 M pH 7.2, 7 days at 37.4 °C; for microscopic examination of CR-stained aggregates, without HSA: phosphate buffer 0.1 M pH 7.2, 7 days at 37 °C
Description: Microscopic studies were carried out for samples prepared in phosphate buffer (0.1 M, pH 7.2) incubated for 7 days at 37.4 °C. To 2 mL of H-LYQLENY-OH (5) and H-VEALYL-OH (6) (c = 2.88 mM) solution was added 2 mL of HSA solution (c = 0.60 mM). The final concentration of incubated peptides was equal to c = 1.44 mM, whereas, for plasma protein, it was 0.30 mM. Incubation was also performed for 4 mL of an HSA sample (c = 0.3 mM). After that period, 4 mL of CR solution (c = 45 μM in phosphate buffer, pH 7.2) was added to the all samples, which were incubated for another 3 days at room temperature.
The microscopic assays were performed for samples stained with Congo Red dye. The samples were transferred on a microscopic slide and visualized using a Delta Optical Genetic Pro (Warsaw, Poland) light microscope.

[4] = Thioflavin T (ThT) fluorescence aggregation assay; type: physicochemical; settings: peptide 0.33 mM with HSA 0.33 mM, phosphate buffer pH 6.0, 7 days at 37.2 °C, then ThT for 3 days, λexc 440 nm, 470–600 nm
Description: Insulin, peptides 5 and 6, and HSA (final concentration 0.66 mM), as well as each sample of the mixture of insulin, peptides 5 and 6) (0.33 mM) with HSA (0.33 mM) were incubated in phosphate buffer solution, pH 6.0 (2 mL), for 7 days at a temperature of 37.2 °C. Then, 2 mL of a solution of Thioflavin T ([…] in phosphate buffer, pH 6.0) was added to the samples. Incubation continued for another 3 days. During this time, spectroscopic measurements of all samples were performed in the range of 470–600 nm, excitation wavelength 440 nm. The intensity of fluorescence spectra recorded on the first, second, and third days of incubation for all samples. are shown in the Supplementary Material (Figures S3 and S4).
The fluorescence intensity measurements were carried out using a FLUOROMAX-4 system from Horiba Scientific (Edison, NJ, USA), measurement range of 470–600 nm, excitation wavelength 440 nm.

[5] = Circular dichroism (CD) after incubation with HSA; type: physicochemical; settings: 0.1 mg/mL, phosphate buffer pH 7.2, measured after 30 min, two and four days of incubation at 37 °C, 190–270 nm
Description: Samples were prepared by dissolving 1 mg of the analyzed peptide in phosphate buffer pH 7.2 (10 mL), to a final concentration of 0.1 mg/mL All measurements were carried out at room temperature using a quartz cuvette (1 mm path length, Hellma). The experimental settings were as follows: measurements range, 190–270 nm; data pitch, 5 nm; scanning mode, continuous; scanning speed, 100 nm/min; bandwidth, 3 nm; integration time, 1 s.
The CD spectra were recorded using a Jasco J-1500 instrument (Jasco, Cracow, Poland) and quartz cuvettes with 1 mm optical path lengths. The measurements were acquired in the range of 190–270 nm at ambient temperature by taking points every 5 nm, with a scan rate of 100 nm per min, an integration time of 1 s, and a bandwidth of 4 nm. The samples were prepared in phosphate buffer (0.1 M, pH 7.2) with a final concentration of 0.1 mg/mL.
Circular dichroism (CD) spectroscopy can be a very valuable source of information about differences in the secondary structure of peptides and proteins. It has been shown that all α-helical proteins show a strong minimum at 222 nm and 208–210 nm and a strong maximum at 191–193 nm. In the case of β-sheet protein, a single negative band may be observed in the 210–225 nm wavelength range and a strong positive band in the 190–200 nm wavelength range, although their intensities are noticeably lower than those for α-proteins. The CD spectra recorded for buffered solutions of insulin (4) and hot-spot fragments (5), (6) in the presence of HSA as well as for native insulin are presented in Figure 9a,b. The measurements were performed after 30 min (sample 0), and then after two and four days of incubation at 37 °C.

[6] = Absorption spectra of the filtered HSA/Py-Ins complex on storage; type: physicochemical; settings: [Py-Ins] 16.38 μM, [HSA] 30 μM, filtered through 0.2 µm syringe filter, spectra after 2, 4 and 6 days
Description: Broad absorption bands can indicate the presence of Py-Ins aggregates. Therefore, a solution of Py-Ins (1) complex with HSA was filtered through a 0.2 µm syringe filter in order to remove any Py-Ins aggregates, and the stability of the complex was tested for a further 6 days. […] This may indicate that the Py-Ins (1) conjugate was completely bound to the HSA, and that the protein has a protective role in the aggregation process. Additional confirmation of this was provided by the observed linear increase in Py-Ins absorbance for the samples diluted with 30 µM HSA solution (Figure 2, panel IIb).

HSA [7] = molecular target: T1, HSA; assay: Time-resolved fluorescence decay of the pyrene label in the presence of HSA; type: binding; settings: for <τ> average fluorescence lifetime / A1 (amplitude of fast component, aggregate fraction) / A2 (amplitude of slow component, monomer) / τ1 (fast component, aggregate form) / τ2 (slow component, monomer form): 30 μM HSA in PBS, [Py-Ins] 16.38 μM, λexc 337 nm, λem 405 nm; for <τ> average fluorescence lifetime: Equation (2); for A1 (amplitude of fast component, aggregate fraction) / A2 (amplitude of slow component, monomer) / τ1 (fast component, aggregate form) / τ2 (slow component, monomer form): bi-exponential fit
Description: The solutions of HSA (concentration = 3 10^−5 M) were prepared by dissolving the protein in 0.01 M of phosphate buffer saline (PBS, [NaCl] = 150 mM), pH = 7.2. […] The prepared samples were used within 24 h. […] In order to ensure complete protein hydration, the solutions were stored at room temperature for at least 1 h before measurements. The samples for fluorescence measurements were saturated with argon or deaerated with a vacuum pump.
Time-resolved measurements of HSA fluorescence were performed using a flash photolysis system based on a GL-3300 nitrogen laser (Photon Technology International, Birmingham, NJ, USA) providing single light pulses with a wavelength of 337.1 nm, duration ~800 ps, and average energy 100 µJ. The detection system consisted of a Baush&Lomb monochromator (Rochester, NY, USA), Hamamatsu 1P28 photomultiplier, and a PS325 power supply system (Stanford Research, Sunnyvale, CA, USA). […] All experiments were carried out at room temperature (25 ± 1 °C) using quartz cells with an optical length of 1 cm.

[8] = Time-resolved fluorescence decay of the pyrene label in buffer or TX-100 (no protein); type: physicochemical; settings: [Py-Ins] 16.38 μM, λexc 337 nm, λem 405 nm; for <τ> average fluorescence lifetime: Equation (2); for A1 (amplitude of fast component, aggregate fraction) / A2 (amplitude of slow component, monomer) / τ1 (fast component, aggregate form) / τ2 (slow component, monomer form): bi-exponential fit

O=C(O)CCCc1ccc2ccc3cccc4ccc1c2c34 [PBA, 4-(1-pyrene)butyric acid]
affinity for albumin (albumins): weak affinity

O=S(=O)(O)c1ccc2ccc3cccc4ccc1c2c34 [PSA, 1-pyrene sulfonic acid]
binding constant, non-specific binding (HSA [1]): 3.8 × 10^5 dm^3 mol^−1
binding constant, specific receptor site (HSA [1]): 6.5 × 10^6 dm^3 mol^−1

c1cc2ccc3cccc4ccc(c1)c2c34 [Pyrene]
binding constant with albumins (albumins; nonspecific binding, order of magnitude): ~10^4 dm^3 mol^−1

H-LYQLENY-OH [LYQLENY, H-LYQLENY-OH]
Congo Red assay of HSA complexes: absorbance change [2]: no decrease in absorbance typical for amyloid structures
microscopic examination of CR-stained aggregates, in the presence of HSA [3]: significantly less content of fibers characteristic for amyloid deposits
microscopic examination of CR-stained aggregates, without HSA [3]: typical amyloid fibers
Thioflavin T assay of HSA complexes: fluorescence intensity [4]: no increase in fluorescence intensity
secondary structure / amyloid formation in the presence of HSA by CD [5]: increase in the amount of the α-helix structure

H-VEALYL-OH [VEALYL, H-VEALYL-OH]
Congo Red assay of HSA complexes: absorbance change [2]: no decrease in absorbance typical for amyloid structures
microscopic examination of CR-stained aggregates, in the presence of HSA [3]: significantly less content of fibers characteristic for amyloid deposits
microscopic examination of CR-stained aggregates, without HSA [3]: typical amyloid fibers
Thioflavin T assay of HSA complexes: fluorescence intensity [4]: no increase in fluorescence intensity
secondary structure / amyloid formation in the presence of HSA by CD [5]: prevents the formation of amyloid fibrils

Py-Ins: derivative of human insulin labeled with 4-(1-pyrene)butyric acid
stability of the HSA complex / aggregation: changes of absorption spectra on storage [6]: no changes were observed
<τ> average fluorescence lifetime (HSA [7]; filtered): 145.6 ns
A1 (amplitude of fast component, aggregate fraction) (HSA [7]; filtered): 0.2
A2 (amplitude of slow component, monomer) (HSA [7]; filtered): 0.8
τ1 (fast component, aggregate form) (HSA [7]; filtered): 19.4 ns
τ2 (slow component, monomer form) (HSA [7]; filtered): 150.4 ns
<τ> average fluorescence lifetime (HSA [7]; non-filtered): 133.6 ns
A1 (amplitude of fast component, aggregate fraction) (HSA [7]; non-filtered): 0.4
A2 (amplitude of slow component, monomer) (HSA [7]; non-filtered): 0.6
τ1 (fast component, aggregate form) (HSA [7]; non-filtered): 19.1 ns
τ2 (slow component, monomer form) (HSA [7]; non-filtered): 143.8 ns
aggregate fraction (HSA [7]; diluted Py-Ins/HSA solutions, [Py-Ins]/[HSA] = 0.11, data not shown): about 20%
<τ> average fluorescence lifetime ([8]; 20 mM TX-100, filtered): 161.2 ns
A1 (amplitude of fast component, aggregate fraction) ([8]; 20 mM TX-100, filtered): 0.1
A2 (amplitude of slow component, monomer) ([8]; 20 mM TX-100, filtered): 0.9
τ1 (fast component, aggregate form) ([8]; 20 mM TX-100, filtered): 18.2 ns
τ2 (slow component, monomer form) ([8]; 20 mM TX-100, filtered): 162.0 ns
<τ> average fluorescence lifetime ([8]; 20 mM TX-100, non-filtered): 147.9 ns
A1 (amplitude of fast component, aggregate fraction) ([8]; 20 mM TX-100, non-filtered): 0.2
A2 (amplitude of slow component, monomer) ([8]; 20 mM TX-100, non-filtered): 0.8
τ2 (slow component, monomer form) ([8]; 20 mM TX-100, non-filtered): 152.7 ns
A1 (amplitude of fast component, aggregate fraction) ([8]; PBS buffer, filtered): 0.2
A2 (amplitude of slow component, monomer) ([8]; PBS buffer, filtered): 0.8
τ1 (fast component, aggregate form) ([8]; PBS buffer, filtered): 20.1 ns
τ2 (slow component, monomer form) ([8]; PBS buffer, filtered): 98.8 ns
<τ> average fluorescence lifetime ([8]; PBS buffer, non-filtered): 86.6 ns
A1 (amplitude of fast component, aggregate fraction) ([8]; PBS buffer, non-filtered): 0.5
A2 (amplitude of slow component, monomer) ([8]; PBS buffer, non-filtered): 0.5
τ2 (slow component, monomer form) ([8]; PBS buffer, non-filtered): 98.4 ns

insulin: native human recombinant insulin (Sigma-Aldrich)
Congo Red assay of HSA complexes: absorbance change [2]: no decrease in absorbance typical for amyloid structures
Thioflavin T assay of HSA complexes: fluorescence intensity [4]: no increase in fluorescence intensity
secondary structure / amyloid formation in the presence of HSA by CD [5]: does not tend to form amyloid fibrils
